Data on two substances can be found in PMC11187873.

Several values for one entry are separate records, joined by “and”; a condition that tells them apart may be missing. Equal values may be shown once.

Assay [1] concerns the target PR(T26A)‐RT model precursor (HIV‐1 isolate BH10). The assay can be described thus: SEC-MALS.
Assay [2] concerns the target PR‐RT model precursor (His6‐SUMO‐Δp6*‐PR(D25A)‐RT) (HIV‐1 isolate BH10). Briefly: SEC-MALS.

For the substance “PR(T26A)‐RT model precursor (domain or fragment)”, the stoichiometry N in assay [1] was 2 and 4. Regarding “PR‐RT model precursor (His6‐SUMO‐Δp6*‐PR(D25A)‐RT) (domain or fragment)”, the stoichiometry N in assay [2] was 2 and 4.
